Results: article doi:10.1101/2024.01.22.576655

Tests used:
[1] = molecular target: RNC_(1-180) (Escherichia coli BL21(DE3)); experiment: co-sedimentation
[2] = molecular target: RNC_(1-646) (Escherichia coli BL21(DE3)); experiment: co-sedimentation
[3] = molecular target: longer NCs; experiment: co-sedimentation
[4] = molecular target: BADAN-labelled TF_(R14C) (Escherichia coli) (UniProt P0A850); experiment: other fluorescence titration
[5] = molecular target: β-gal RNCs purified in low-salt buffer without the second sucrose cushion; experiment: affinity purification with mass spectrometry

Sequence of DnaJ (endogenous) (P08622 whole entry): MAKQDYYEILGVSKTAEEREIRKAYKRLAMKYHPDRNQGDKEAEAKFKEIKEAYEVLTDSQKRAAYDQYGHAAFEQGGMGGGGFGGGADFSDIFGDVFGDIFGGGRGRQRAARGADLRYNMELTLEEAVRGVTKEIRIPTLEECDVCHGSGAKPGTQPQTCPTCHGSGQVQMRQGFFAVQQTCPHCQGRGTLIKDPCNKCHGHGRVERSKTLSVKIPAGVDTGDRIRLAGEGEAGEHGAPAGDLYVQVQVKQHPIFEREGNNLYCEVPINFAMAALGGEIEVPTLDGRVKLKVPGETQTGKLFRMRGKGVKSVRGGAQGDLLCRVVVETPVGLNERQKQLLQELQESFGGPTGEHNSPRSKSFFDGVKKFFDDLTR

“DnaK, recombinant (from UniProt P0A6Y8 1-638) (natural protein)” showed a stoichiometry N [1] of 1 DnaK per NC, a stoichiometry N [2] of 2 DnaK per NC and a stoichiometry N (molecules of DnaK per NC) [3] of 2 to 3.
RNC_(1-646) (complex) was tested, and the Kd [4] was 21 nM.
In the case of “DnaK (endogenous) (from UniProt P0A6Y8 1-638) (natural protein)”, the occupancy [5] is reported as < 10%.
“Trigger factor, wild type, recombinant (from UniProt P0A850 1-432) (natural protein)” was tested, and the stoichiometry N [2] was 1 TF per RNC.
In the case of “DnaJ (endogenous) (from UniProt P08622 1-376) (natural protein)”, the occupancy [5] is reported as < 10%.
